# Experimental data taken from paper PMC3534135, “Interaction of the Transactivation Domain of B-Myb with the TAZ2 Domain of the Coactivator p300: Molecular Features and Properties of the Complex” (PLoS ONE, 2012).
# T1: B-Myb transactivation domain (residues 275-376) (mouse, UniProt P48972 275-376)
# T1 construct: also called B-Myb TAD
# T1 sequence (looked up): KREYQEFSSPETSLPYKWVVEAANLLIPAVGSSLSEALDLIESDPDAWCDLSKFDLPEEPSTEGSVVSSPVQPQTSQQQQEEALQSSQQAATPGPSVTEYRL
# Molecular target: T1, B-Myb transactivation domain (residues …)
# Experiment: NMR titration; 15N/1H HSQC of 15N-labelled p300 TAZ2 (100 µM) without and with 100 or 200 µM unlabelled B-Myb TAD; minimal shift approach; 25°C, 600 MHz; 20 mM Bis-Tris, 100 mM NaCl, 5 mM DTT, 20 µM ZnSO4, pH 5.8; Kd estimated from intermediate exchange
# Settings: both partners purified
binder,measurement,value
"TAZ2 domain of the coactivator p300 (domain or fragment, human, UniProt Q09472 1726-1812, looked up, human p300, TAZ2 domain, residues 1726-1812, corresponding to murine CBP TAZ2; cloned into the NdeI and BamHI sites of pET23a; No tag is stated; also called p300 TAZ2) SPGDSRRLSIQRCIQSLVHACQCRNANCSLPSCQKMKRVVQHTKGCKRKTNGGCPICKQLIALCCYHAKHCQENKCPVPFCLNIKQK",Kd,1 to 10 µM
